The values below come from paper doi:10.1101/2022.10.31.514592 (bioRxiv, 2022).

Assay [1] addresses SARS-CoV-2 WT RBD (SARS-CoV-2, wildtype (Wuhan-Hu-1 type), UniProt P0DTC2). The assay can be described thus: ELISA. For orientation: ELISA stands for enzyme-linked immunosorbent assay.
In assay [2] the target is SARS-CoV-1 RBD (SARS-CoV-1, strain , UniProt P59594). The assay can be described thus: ELISA.

B1: S451-1140 IgG (antibody, V domains shown)
VH: EVQLVESGGGLVPPGGSLRLSCAASGFIFSNYAMTWVRQAPGKGLEWVSAISGGGGSTDYADSVKGRFTISRDNSKNTLYLQMNSLRAEDTAVYYCAKDLFGSGWSLFDNWGQGTLVTVSS
VL: not shown
As for B1, in assay [1], the binding result is “binds”.

B2: S728-1157 IgG (antibody, V domains shown)
VH: EVQLVESGGGLVQPGGSLRLSCAASGLLVSRNYMNWVRQAPGKGLEWVSIIYSGGSTFYADSVEGRFTISRDESKNTLYLQMNSLRTDDTAVYYCARDLSDYGGIDCWGQGTLVTVSS
VL: ELTQPLSVSMALGQTARISCGGDNVGSQNVHWYQQRPGQAPVLVIYRDSNRPSGIPERFSGSKSGNTATLTISRAQAGDEADYYCQVWDSSTVAFGGGTKLTVL
As to B2, in assay [1], the binding result is recorded as “binds”.

B3: S626-161 IgG (antibody, V domains shown)
VH: QLQLQESGPGLVKPSEALSLTCTVSGGSISTSNYYWGWIRQPPGKGLEWIGSIYYRGGTHYNPSLKTRVTISVDTSKNQFSLKLSSVTAADTAVYYCARHTYFYDIVGAAVWEPFDIWGQGTMVTVSS
VL: not shown
As to B3, the binding result in assay [2] and in assay [1] was “binds” in each case.
